Laboratory results taken from the DeepSol protein solubility set.

Assay: soluble on expression in E. coli; label from the status in PepcDB or PDB records

Row | Sequence | soluble on expression in E. coli
1 | MDEGVKEKFIGAVLGAAVGDALGKSVEDITEEEVFEFYGDRIRDFVTPHPSSPAYGQLPEETSDETTIFRLLLESLVEKKALDVRDFLNRLMEWYDREEMHRYPDPMLLTAIDLLSRGINPSTHGLTSFSVEGILRSVALGLYHYYNPELAAEGSKVVSLLTHRSDVISDASAILGALIAHLVRGDFYLEDFREKLRLIETLKDYAKEEKHKKILDRVAELLMESADLETAINTLGNGTFAFEAFPLALYIFLSNVENPEEALFQAVNSYGEFGGDTDAIGFLVGAMLGAYYGEEAIPYHLRENVENSQKLRELAERLYEVVEKQVGFSQ | not soluble
2 | MADKDTYTGFCIIKEGTKISKSGWEVLSFTTQEASGEGAGNGLAKCLIDGDTETFWHAKWQGGSDPLPYDIVIDMKQNIQIAQVELLPRGRGSNNPIKVVEFAASEDNVNWTPIGRFGFTNQDAALEYYVKSIKARYIRLTIPDDGGNSTVAAIRELDVKGTIINLEHHHHHH | soluble
3 | MIKIKAIERKAGFGKTSKTLWYPAIHLHSDVKFEEFIELVSDETTVSSADIKAVFDRAAKVLIRLLQDGKSIDCGDMGTYRPSITAKAGSGVDSADKVTVELVDKAKVIYTPRMKVKTALKGVRMERAERVLDVPYASSIKPNENNSGGSSSSDNNGHAGL | not soluble
4 | GPGSMKKELRVGVLISGRGSNLEALAKAFSTEESSVVISCVISNNAEARGLLIAQSYGIPTFVVKRKPLDIEHISTVLREHDVDLVCLAGFMSILPEKFVTDWHHKIINIHPSLLPSFKGLNAQEQAYKAGVKIAGCTLHYVYQELDAGPIIMQAAVPVLREDTAESLASRILAAEHVCYPKGVKLIAQDKIKLCDDGTVQCTGEDELFLFQENF | soluble
5 | MGHHHHHHSHGPRDIISPELMADYLQPKLLGILAFFNMQLLSSSVGIEDKKMALNSLMSLMKLMGPKHVSSVRVKMMTTLRTGLRFKDDFPELCCRAWDCFVRCLDHACLGSLLSHVIVALLPLIHIQPKETAAIFHYLIIENRDAVQDFLHEIYFLPDHPELKKIKAVLQEYRKETSEST | not soluble
6 | MGSDKIHHHHHHMQFGAKPLFENISVKFGGGNRYGLIGANGCGKSTFMKILTGDLEPSSGNVSLDVNERMGKLNQDQFAYEKFSVVDTVIMGHRELWKVKQERDRIYSLPEMTEEDGIKVSELEMEFAEMDGYTAESRAGDLLLGVGIGTEQHFGLMSQIAPGFKLRVLLAQALFSDPDLLLLDEPTNNLDIDTIRWLQDMLNQRNSTMVIISHDRYFLNSVCTHMADLDYGELRVYPGNYDEYMMAATQARERLQSDNAKKKAQIAELQTFVARFSANASKAKQATSRAKQIDKIKLDDIKASSRVNPFIRFEQEKKLFRNALIVENLAKGYDKPLFSNLNLMVEVGERIAILGENGVGKTTLMRTLVHDIPQDEGTIQWSENANIGYYAQDHEADFANDMTLFDWMSQWRKPEDDDQSVRAILGRMLFGSDDIKKSVTVLSGGEKGRMYFGKLIMQKANILMLDEPTNHMDMESIESLNNALEMYEGTLMFVSHDRAFVSSLATRILEVTANGVNDFKGTYDEFLRSKGIDA | not soluble
7 | MSHQIRSKKTLWELVGRNKDALRDFLKEHRGTILLRDIASEHKVVYKPIFKRYNGDPDLIEDNSNDVEHWYDYHLERYWNTPELKKEFYKKFGPVDLNQPIILAKPLRQHNRGDLVHLLPQFVVPVYN | soluble
8 | SLPSINALLQAEVLSRQITSPVSGINGDIRAKKIASIADVCESMKEQLLVLVEWAKYIPAFCELPLDDQVALLRAHAGEHLLLGATKRSMVFKDVLLLGNDYIVPRHCPELAEMSRVSIRILDELVLPFQELQIDDNEYAYLKAIIFFDPDAKGLSDPGKIKRLRSQVQVSLEDYINDRQYDSRGRFGELLLLLPTLQSITWQMIEQIQFIKLFGMAKIDNLLQEMLLGG | soluble
9 | RRAYGKNSKWVLINYNTGQPYEQTKVTPDGLIDYDAVLAANAAASNGSEAIFALGSNSHKWFGLLSSFKKKLNSSLTLTAGYDGRYYRGDHYDKITDLLGGSYYIEDPKTKLAYHAEGQQLKVGDIVNRDYTGEIMWHGLFAQMEHSSEWIDAFVSGSINYELYRNHNYGGSKSTGYLPGVSPWKSFLPWSGKAGLSYKFAQGHNVFANGGFFTRAPLFGNIYAAGAIIPNDKANMEKVLTGEVGYGFTNHKNFEFNINGYYTKWMDRVTSKRIGNEYVYLNGVDAVHCGVEAEVSYRPIRQIDLRGMFSLGDWTWQNNVSYTSYDEAGNETGQDITYIKGLHVGDAAQMTAAVSADIELFKGFHVIGKYNFLGKNYAGFNPATRNAQQYEADGKEIVESWKLPDVGLFDLSASYNFKLGSLSTTFYFNMDNVADKRYVSDADDNIIGKKHDEASALVWYGFGRTWSTGIRVNF | not soluble
10 | MPTYKLTYFNSRFYAEPARILFHLAGVPFEDIRIIHGDGTWEQIKDKTPFGQVPVLNINGFEIPQSTAIIRYLATKFGYAGKTPEEQAWADAICDQVRDFMAVPFKDIVVAKRVGKTEEEVSQLINEGFVPGRDAYFKIITRILEKNKSGFLVGDGITFADIVVVENLTTLQKNQLFEASKYPELAALREKVYAIPAIKKWVEARPDTQY | not soluble
11 | MIVLIDNYDSFTYNLYQLLGEYEEEIVVVRNDQITIEQLEEMNPKGIVLSPGPGKPEEAGICIEVIRHFYKNVPILGICLGHQAIISAFGGEIVRAERIKHGKTSRAKHNGTSIFSYVTQPLTAMRYHSLVAAQTSLPQCFDILATAMDDGEIMAVRHNYYPLFGLQFHPESIATEEGGKLIRAFLGEVKEEERV | not soluble
12 | MRIEEFDYELPEELIAKYPAVPRHSARLMVLNRKDQSIKHDTFINLPDYLEEGDLLVFNNTKVIPARLYGRKPTGGRVEVVLTDFIKPDEWKALIGGKKIRPGLVIEVAPDFKVEVLEHIEEGKFRVKLLGEEPLKLIDKYGHIPIPPYLKREEEPIDRVYYQTIFAKEKGAVASPTASLHFSEELLEKLKEKGINFAFITLHVSYGTFKPVKVERVEEHRVDPEYVKIPKETVEKIKETKEKGKRVVAVGTTVVRALETKPFEPFEGWTDLYIYPGFKFKVVDAMITNFHLPRSSLLILVSAFAGREFILKAYREAVEKRYRFYSYGDGMLIL | soluble
13 | ATTYNAVVSKSSSDGKTFKTIADAIASAPAGSTPFVILIKNGVYNERLTITRNNLHLKGESRNGAVIAAATAAGTLKSDGSKWGTAGSSTITISAKDFSAQSLTIRNDFDFPANQAKSDSDSSKIKDTQAVALYVTKSGDRAYFKDVSLVGYQATLYVSGGRSFFSDCRISGTVDFIFGDGTALFNNCDLVSRYRADVKSGNVSGYLTAPSTNINQKYGLVITNSRVIRESDSVPAKSYGLGRPWHPTTTFSDGRYADPNAIGQTVFLNTSMDNHIYGWDKMSGKDKNGNTIWFNPEDSRFFEYKSYGAGATVSKDRRQLTDAQAAEYTQSKVLGDWTPTLP | soluble
14 | MGSSHHHHHHSSGLVPRGSHMGEMLERQKKRLPSKAKYLKYTASITETGNHEADSSVIFRPHHSDVTCSNARRAESRTLPQICSCILLDHGRRTRPEVRTGMVSLHGSFKGFPCFGIRRGISHVLPGQKLRGSCDNWKKRQN | soluble
15 | MIFMNMVNRERELQALKKRLSSNDLELIIIYGRRRIGKTFLIINAVNGYDFIYYLATEKNNLRKFKELTESKYEDIKYVKEDWEAIFHYLRDKIIIIDEFPYMIKEDESILSTFQKIVDETLKGSKTKLILLGSSISMMEDAISYKSPLYGRRTASIELKELKFKDLKGFNFSLIDAIHVYGFAGGVPFYLTKAKTPFLKWINAELKEVDSFIKDEIDFMLRYEFSEIGTYKEILHAISSGKNTLGEIKDFVRISGDVSSYLNKLEKIGIIGKEFPYKMKKGARYYIKDNFTLFWFTFIYPNLSLIEEGIYEIKEDEYNVYLGRIFEKIAREYVEDVYKVKVERLWFKDVEIDIYGDGIAGECKWSEGINGEKVLYELKRKVEDLGLDVKKYIIFAKSFSKTNEEAEFIDLKKLEQWYRTLEHHHHHH | soluble
